Experiment: soluble on expression in E. coli; label from the status in PepcDB or PDB records

Sequence | soluble on expression in E. coli
FQIGDMVARKSYQMDVLFRIIGIEQTSKGNSIAILHGDEVRLIADSDFSDLVAVKKDEQMMRKKKDESRMNESLELLRQDYKLLREKQEYYATSQYQHQEHYFHMPGKVLHLDGDEAYLKKCLNVYKKIGVPVYGIHCHEKKMSASIEVLLDKYRPDILVITGHDAYSKQKGGIDDLNAYRHSKHFVETVQTARKKIPHLDQLVIFAGACQSHFESLIRAGANFASSPSRVNIHALDPVYIVAKISFTPFMERINVWEVLRNTLTREKGLGGIETRGVLRIGMPYKSN | not soluble
FSGSEATAAILSRAPWSLQSVNPGLKTNSSKEPKFTKCRSPERETFSCHWTDEVHHGTKNLGPIQLFYTRRNTQEWTQEWKECPDYVSAGENSCYFNSSFTSIWIPYCIKLTSNGGTVDEKCFSVDEIVQPDPPIALNWTLLNVSLTGIHADIQVRWEAPRNADIQKGWMVLEYELQYKEVNETKWKMMDPILTTSVPVYSLKVDKEYEVRVRSKQRNSGNYGEFSEVLYVTLPQMSQ | soluble
FVLTPGNPRWENTHLTYRIENYTPDLSREDVDRAIEKAFQLWSNVSPLTFTKVSEGQADIMISFVRGDHRDNSPFDGPGGNLAHAFQPGPGIGGDAHFDEDERWTKNFRDYNLYRVAAHELGHSLGLSHSTDIGALMYPNYIYTGDVQLSQDDIDGIQAIYGPSENPVQPSGPQTPQVCDSKLTFDAITTLRGELMFFKDRFYMRTNSFYPEVELNFISVFWPQVPNGLQAAYEIADRDEVRFFKGNKYWAVRGQDVLYGYPKDIHRSFGFPSTVKNIDAAVFEEDTGKTYFFVAHECWRYDEYKQSMDTGYPKMIAEEFPGIGNKVDAVFQKDGFLYFFHGTRQYQFDFKTKRILTLQKANSWFNCRKN | soluble
GAATMMRLARAMRPRPDGLPAQADDLRLHRLVLNDVGPRLNVEALQRIAGNVAAQDSYPTFEAAVAAMRQISTTFGPHTDAQWDELARHIYVRQGGGWVRHFDPALAVPLGAQVAQAFEAGERILWQAYDSLDCPVLIVRGQDSDLLSAATAAEMLGRNPRARLHEVPGVGHAPTLMTPEQIEPIARFLQE | not soluble
GADGVGNASGDWHCDSTWSEGHVTTTSTRTWVLPTYNNHLYKRLGESLQSNTYNGFSTPWGYFDFNRFHCHFSPRDWQRLINNNWGMRPKAMRVKIFNIQVKEVTTSNGETTVANNLTSTVQIFADSSYELPYVMDAGQEGSLPPFPNDVFMVPQYGYCGLVTGNTSQQQTDRNAFYCLEYFPSQMLRTGNNFEITYSFEKVPFHSMYAHSQSLDRLMNPLIDQYLWGLQSTTTGTTLNAGTATTNFTKLRPTNFSNFKKNWLPGPSIKQQGFSKTANQNYKIPATGSDSLIKYETHSTLDGRWSALTPGPPMATAGPADSKFSNSQLIFAGPKQNGNTATVPGTLIFTSEEELAATNATDTDMWGNLPGGDQSNSNLPTVDRLTALGAVPGMVWQNRDIYYQGPIWAKIPHTDGHFHPSPLIGGFGLKHPPPQIFIKNTPVPANPATTFSSTPVNSFITQYSTGQVSVQIDWEIQKERSKRWNPEVQFTSNYGQQNSLLWAPDAAGKYTEPRAIGTRYLTHHL | soluble
GADNNKWKPLFGKNLENANYNPEVWSETDGVLGAVKDESIWTKDEYENFELDLDFKTDVGTNSGVVVYCTDTKDWIPNSVEIQIADDHCEKWGNGKPYEKCGAIYGHLGAVQDKVVKKPGEWNHMRIKCAGQHIMVILNGKKVTEMDMSKWTSGTKNPDGSDIPSWLPKPFAELPTKGFIGLQGKHGDSLIWFRNIKIRSL | soluble
GAHMADLSLEKAAEVSWEEEAEHSGASHNILVEVQDDGTMKIKDEERDDTLGGGGSGGGGSGVLWDTPSPGIYRILQRGLLGRSQVGVGVFQEGVFHTMWHVTRGAVLMYQGKRLEPSWASVKKDLISYGGGWRFQGSWNAGEEVQVIAVEPGKNPKNVQTAPGTFKTPEGEVGAIALDFKPGTAGSPIVNREGKIVGLYGNGVVTTSGTYVSAIAQAKASQEGPLPEIEDEVFRK | soluble
GAKLNRKLRQDSTDRYKTKLYLWRNLGGLIPEDMAISVTESITADWKQYNDMMSKVRNETLDILKTNKVATEDYIGYIAFAEELAHQVWKNKNSSPDPNTANEASKTDLESKYSDVYGLDVTVLDAIYNAVIPIIMGGGS | soluble
GALLHQRDQDMLVSILDLEKVSVEDIMIPRSDLVGIDVNDDWKKIQKQLTQANHTRVLLYRDSIDDVVGYIHARDALKLLSKNQFNKATLLRAVRELYFVPEGTPLNIQLLKFQHAKERIGLVVDEYGDIQGLVTLEDILEEIVGDFT | not soluble
GAMEAEKEFITMLKENQVDSTWSFSRIISELGTRDPRYWMVDDDPLWKKEMFEKYLSNR | soluble
GAMGDASRVRVSGQGLHEGHTFEPAEFIIDTRDAGYGGLSLSIEGPSKVDINTEDLEDGTCRVTYCPTEPGNYIINIKFADQHVPGSPFSVKVTGEGRVKESITRRRRAPSVANVGSHCDLSLKIPEISIQDMTAQVTSPSGKTHEAEIVEGENHTYCIRFVPAEMGTHTVSVKYKGQHVPGSPFQFTVGPLGEGGAHKVRAGGPGLERAEAGVPAEFSIWTREAGAGGLAIAVEGPSKAEISFEDRKDGSCGVAYVVQEPGDYEVSVKFNEEHIPDSPFVVPVASPS | soluble
GAMGNNLVETTCKNTPNYQLCLKTLLSDKRSATGDITTLALIMVDAIKAKANQAAVTISKLRHSNPPAAWKGPLKNCAFSYKVILTASLPEAIEALTKGDPKFAEDGMVGSSGDAQECEEYFKGSKSPFSALNIAVHELSDVGRAIVRNLL | soluble
GANPTTAETLDATRRVDDATVAIRCAINNLIVELIRGTGSYNRSSFESSSGLVWTSGPAGEGSYSITTPSQFVFLSSAWADPIELINLCTNALGNQFQTQQARTVVQRQFSEVWKPSPQVTVRFPDSDFKVYRYNAVLDPLVTALLGAFDTRNRIIEVENQ | soluble
GCALNCSFCSTAKQGFNRNLSTAEIIGQVWLAARELSDNNGTHDKKITNVVMMGMGEPLLNFDNVVSAMNIMMDDLAYGLSKRRVTLSTSGVLPEMERLREVSPVALAVSLHAPTDELRNELVPINKKYPLSQLISLCKRYFKDEPRRKVTFEYVMLKGVNDQPEHASQLIKLLHNVPAKVNLIPFNPFPLTQYQRSSRETIDAFRDKLMKHGINTITRKTRG | not soluble
GCPHDCVFCNQNTITGEESKVNGDYVKSTVEDYLDTIPNKSATIEISFFGGTFTAINIEKQKELLSVARHYKEIGKIKYIRLSTRPDYIDDEILTNLKNYSVDIIELGVQSLDSEVLLKSGRGHTKEDVVKASRLIKKYGFTLGHQIMLGLPGDNAEKDIETTRKVICMKPNICRIYPALVIKDTAMEKMYNRGIYKPYDIEECVEI | not soluble
GDQRFDVLITGGTLVDVVTGELRPADIGIVGALIASVHEPASRRDAAQVIDAGGAYVSPGLIDTHMHIESSMITPAAYAAAVVARGVTTIVWDPHEFGNVHGVDGVRWAAKAIENLPLRAILLAPSCVPSAPGLERGGADFDAAILADLLSWPEIGGIAEIMNMRGVIERDPRMSGIVQAGLAAEKLVCGHARGLKNADLNAFMAAGVSSDHELVSGEDLMAKLRAGLTIELRGSHDHLLPEFVAALNTLGHLPQTVTLCTDDVFPDDLLQGGGLDDVVRRLVRYGLKPEWALRAATLNAAQRLGRSDLGLIAAGRRADIVVFEDLNGFSARHVLASGRAVAEGGRMLVDIPTCDTTVLKGSMKLPLRMANDFLVKSQGAKVRLATIDRPRFTQWGETEADVKDGFVVPPEGATMISVTHRHGMAEPTTKTGFLTGWGRWNGAFATTVSHDSHNLTVFGGNAGDMALAANAVIGTGGGMAVASEGKVTAILPLPLSGLVSDAPLEEVARAFEDLREAVGKVVEWQPPYLVFKACFGATLACNIGPHQTDMGIADVLTGKVMESPVIEV | not soluble
GEASPVDPLRPVVDASIQPLLKEHRIPGMAVAVLKDGKAHYFNYGVANRESGAGVSEQTLFEIGSVSKTLTATLGAYAVVKGAMQLDDKASRHAPWLKGSAFDSITMGELATYSAGGLPLQFPEEVDSSEKMRAYYRQWAPVYSPGSHRQYSNPSIGLFGHLAASSLKQPFAPLMEQTLLPGLGMHHTYVNVPKQAMASYAYGYSKEDKPIRVNPGMLADEAYGIKTSSADLLRFVKANIGGVDDKALQQAISLTHQGHYSVGGMTQGLGWESYAYPVTEQTLLAGNSAKVILEANPTAAPRESGSQVLFNKTGSTNGFGAYVAFVPARGIGIVMLANRNYPIEARIKAAHAILAQLAG | soluble
GEIYTETLQQTYAWTAGTNIPIKIPRNNFIRKIRVQLIGSISNSGTAAVTLPSAPFPYNLVQTFNLSYEGSKTLYSVSGTGLGILMYYTTKGQNPAYPAPGTSVPASGSVNLNVMWEFDLARFPATMVQNIILSILTGQAPSGVSINASFYITITYERVTAQEILSEGGLGADGEMPLATVLPKVIEIPTFNVPASSAPIHVAYLQPGQIYKRQLVYVINSTSGINNTDPTEYELKIVRGVPTDKIKVSWAALQAENQAEYQVAPYSGASAIIDFRKYFNGDLDLTHAPSDSIEYDLALQNQDNVYSLYVSYVLPYYDQLAALPAQVAAIVQQYVARQKRRIKRHHHHHH | soluble
GERQVYRKIRDRASYAFALISVAAVVRMEEGRIATARLAFGGLAHKPWRDPEVEACLEGETPSDDLFDRAADRLLQSARGQGENDFKIPLTRRALTAALREATG | not soluble
GFGPHQRLEKLDSLLSDYDILSLSNIQQHSVRKRDLQTSTHVETLLTFSALKRHFKLYLTSSTERFSQNFKVVVVDGKNESEYTVKWQDFFTGHVVGEPDSRVLAHIRDDDVIIRINTDGAEYNIEPLWRFVNDTKDKRMLVYKSEDIKNVSRLQSPKVCGYLKVDNEELLPKGLVDREPPEGKT | not soluble
GGPTIMVALANPRTESALITLASALAQHEDGRVLATHIATVPDQTALETAAANRDRIDATSESLLDTAKADAEAFDVPIETKTILSHRGIEEVFDAARTNHADTVVMGYGGTQFAGGRAEGTLDELAHDLPCDFLVLDGQDL | not soluble
GGSHMKSYEIALIGNPNVGKSTIFNALTGENVYIGNWPGVTVEKKEGEFEYNGEKFKVVDLPGVYSLTANSIDEIIARDYIINEKPDLVVNIVDATALERNLYLTLQLMEMGANLLLALNKMDLAKSLGIEIDVDKLEKILGVKVVPLSAAKKMGIEELKKAISIAVKDKKTAEIKYPNFEPYIKKIT | soluble
GHDEIGQLATTFNHLTRELEDAQAMTEGERRKLASVIAYMTDGVIATNRNGAIILLNSPALELLNVSRETALEMPITSLLGLQENYTFEDLVEQQDSMLLEIERDDELTVLRVNFSVIQREH | not soluble
GHHHHHHAIAENLYFQSEDPVFTFGLIADVQYADIEDGENYLRTRRRYYRGSADLLRDAVLQWRRERVQCVVQLGDIIDGHNRRRDASDRALDTVMAELDACSVDVHHVWGNHEFYNFSRPSLLSSRLNSAQRTGTDTGSDLIGDDIYAYEFSPAPNFRFVLLDAYDLSVIGREEESEKHTHSWRILTQHNHNLQDLNLPPVSVGLEQRFVKFNGGFSEQQLQWLDAVLTLSDHKQERVLIFSHLPVHPCAADPICLAWNHEAVLSVLRSHQSVLCFIAGHDHDGGRCTDSSGAQHITLEGVIETPPHSHAFATAYLYEDRMVMKGRGRVEDLTITYS | soluble
GHMASNVANDGERPSRVVELTDETFDSIVMDPEKDVFVLYYVPWSRHSVAAMRLWDDLSMSQSQKRNHLTFVAARIDGEKYPDVIERMRVSGFPTMRYYTRIDKQEPFEYSGQRYLSLVDSFVFQNT | soluble

Reference: the DeepSol protein solubility set
